Each block holds one binder with its values, some of them ahead of it. Where no end group is shown, it is not given here.
How the values were obtained:
[1] = biological target: T1, proteolytically cleaved PTPµ extracellular fragment in tumors of human LN-229 glioma cells (human, UniProt P28827 21-477, limits assumed); experiment: fluorescent probe labeling of fixed LN-229-GFP flank tumor sections
T1 construct: The target is endogenous material deposited in tumor tissue, not a purified protein; also called proteolyzed extracellular fragment of PTPµ; PTPµ fragment
T1 sequence: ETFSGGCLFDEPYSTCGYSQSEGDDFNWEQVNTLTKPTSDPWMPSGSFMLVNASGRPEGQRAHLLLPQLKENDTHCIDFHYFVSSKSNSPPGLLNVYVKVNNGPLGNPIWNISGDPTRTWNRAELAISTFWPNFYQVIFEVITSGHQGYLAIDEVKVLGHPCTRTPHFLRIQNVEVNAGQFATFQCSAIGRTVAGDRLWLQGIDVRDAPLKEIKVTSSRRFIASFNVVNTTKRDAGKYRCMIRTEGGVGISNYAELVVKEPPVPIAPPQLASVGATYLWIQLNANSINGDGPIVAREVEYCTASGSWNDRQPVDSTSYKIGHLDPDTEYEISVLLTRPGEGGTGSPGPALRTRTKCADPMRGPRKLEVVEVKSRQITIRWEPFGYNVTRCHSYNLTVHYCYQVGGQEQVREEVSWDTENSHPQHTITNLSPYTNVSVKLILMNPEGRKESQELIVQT
Text: The sections were rinsed with phosphate-buffered saline, coverslipped with Citifluor Antifadent Mounting Medium (Electron Microscopy Sciences), and imaged immediately at ×20 magnification on a Leica DMI 6000 B inverted microscope (Leica Microsystems GmbH, Wetzlar, Germany) using a Retiga EXi camera (QImaging, Surrey, BC) and Metamorph software (MolecularDevices, Downington, Pa.). Images were acquired across the entire tissue using bright-field and fluorescence optics for fluorescein (GFP) and Texas Red (probe). The resultant images were tiled and flattened to form a single composite image using Metamorph software.
Zoomed MR and corresponding heat map images for the tumor are shown (FIG. 15A). […] The corresponding flank tumor sections were incubated with SBK2-Texas Red or scrambled Texas Red probes. SBK2-Texas Red labeled the entire tumor with greatest intensity in the tumor center (FIG. 15B). This pattern is similar to that observed in the MR images following labeling with the SBK2-Tris-(Gd-DOTA)₃ probe. […] Anti-human vimentin antibody was used to label all the human cells in the mouse flank. […] Similar gradients of PTPμ extracellular fragment, as detected by the SBK2 probe, have been observed previously.

[2] = biological target: T1, proteolytically cleaved PTPµ …; experiment: in vivo labeling of glioma intracranial tumors, Cy5 cryo-imaging

- binding result [1]: no binding (tested: 1 µM)
Binder: GFTQPETGTDNDLWSVDNEK (not fully specified (N-terminus); also: Texas Red label, site not given here) [scrambled Texas Red probe]

- binding result [2]: no binding
B1: scrambled-Cy5 probe (peptide)
peptide: GFTQPETGTDNDLWSVDNEK
modifications: not fully specified (N-terminus)
notes: Same uncertainty about the added N-terminal glycine as for SBK2-Cy5; also called scrambled probe; scrambled version of the PTPµ probe

Source: patent US20130287702A1 (CASE WESTERN RESERVE UNIVERSITY, published 2013)
